The results in this text go back to patent publication US20080003178A1 (BIOINCEPT, published 2008).

The assay concerns the target T1, CD58 (human, UniProt P19256 29-250).
T1 construct: whole, on cells; also called platelet marker CD58
T1 sequence: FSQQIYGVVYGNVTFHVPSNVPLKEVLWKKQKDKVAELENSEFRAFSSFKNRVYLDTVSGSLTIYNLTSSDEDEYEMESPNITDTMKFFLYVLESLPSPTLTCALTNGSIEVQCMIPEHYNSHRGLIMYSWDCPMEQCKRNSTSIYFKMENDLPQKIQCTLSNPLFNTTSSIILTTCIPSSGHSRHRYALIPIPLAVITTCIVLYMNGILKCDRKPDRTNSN
Description: flow cytometry, FITC sPIF-1(15) on human blood cells; no binding to platelets. (A flow cytometer gives signals particle by particle.)

Primed or numbered codes have the meaning given here. No end group written: not given here. FITC′ = fluorescein label, attached via β-alanine spacer; βAla = NCCC(=O)O

B1: FITC labeled sPIF-1(15) (peptide)
peptide: {FITC′-βAla}-MVRIKPGSANKPSDD
notes: also called FITC sPIF-1(15); FITC sPIF-1
As for B1, the binding result is listed as “no binding”.
